For 94 variants, protein stability index results are on record in the supplement of paper PMC10567573.

Sequences and labels used below:
B1: ETS2 (parent)
chain: TSGKRYVYRFVCDLQNLLGFTPEE
B2: TRIM14 (parent)
chain: YARTPTLDPDTMHARLRLSADRLT
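Also: lentivirally expressed fusions sorted by FACS into six bins by GFP to DsRed ratio, PSI derived from sequencing read proportions per bin multiplied by bin number.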

The first series covers variants of B1. As to the kind of experiment: protein stability index of a GFP-peptide fusion (GPS, HEK-293T) (PSI 1-6); higher = more stable. The conditions noted are these: c terminus: a fixed tail appended.
TSGKRYVYRFVCDLQNLLGFTPCE: the protein stability index worked out at 2.97.

Take TSGKRYVYRFVCDLQNLLGFTPTE: the protein stability index worked out at 2.17. Still for that read-out and setting: under TSGKRYVYRFVCDLQNLLGFTPRE stands 3.3. As to TSGKRYVYRFVCDLQNLLGFTPVE, the protein stability index came out at 2.1. The same measure, in the same setting: under TSGKRYVYRFVCDLQNLLGFTPPE stands 3.46; under TSGKRYVYRFVCDLQNLLGFTPWE, 2.88. On the same count and under the same terms, as for TSGKRYVYRFVCDLQNLLGFTPLE, the figure is 2.42.

TSGKRYVYRFVCDLQNLLGFTPDE: the protein stability index stood at 2.04. With TSGKRYVYRFVCDLQNLLGFTPGE, the protein stability index was 2.15. Same read-out and setting: under TSGKRYVYRFVCDLQNLLGFTPSE stands 2.38; under TSGKRYVYRFVCDLQNLLGFTPFE, 2.66; under TSGKRYVYRFVCDLQNLLGFTPME, 2.35.

Take TSGKRYVYRFVCDLQNLLGFTPHE: the protein stability index is 3.12. Still for that read-out and setting: under TSGKRYVYRFVCDLQNLLGFTPYE stands 2.29. As to TSGKRYVYRFVCDLQNQLGFTPEE, the protein stability index is 1.71.

In the case of TSGKRYVYRFVCDLQNGLGFTPEE, the protein stability index came out at 2.31. Take TSGKRYVYRFVCDLQNKLGFTPEE: the protein stability index turned out to be 2.43. For the variant TSGKRYVYRFVCDLQNCLGFTPEE, the protein stability index is 2.57.

For the variant TSGKRYVYRFVCDLQNTLGFTPEE, the protein stability index was found to be 2.98. Still for that read-out and setting: under TSGKRYVYRFVCDLQNMLGFTPEE stands 1.47; under TSGKRYVYRFVCDLQNVLGFTPEE, 1.91; under TSGKRYVYRFVCDLQNALGFTPEE, 2.08. On the same count and under the same terms, as for TSGKRYVYRFVCDLQNSLGFTPEE, the figure is 2.12; as for TSGKRYVYRFVCDLQNILGFTPEE, 2.31.

Consider TSGKRYVYRFVCDLQNWLGFTPEE, for which the protein stability index was 2.21. Same read-out and setting: under TSGKRYVYRFVCDLQNRLGFTPEE stands 2.79; under TSGKRYVYRFVCDLQNYLGFTPEE, 2.37; under TSGKRYVYRFVCDLQNHLGFTPEE, 2.61. In the case of TSGKRYVYRFVCDLQNNLGFTPEE, the protein stability index turned out to be 2.27. Same read-out and setting: under TSGKRYVYRFVCDLQNPLGFTPEE stands 3.57.

For the variant TSGKRYVYRFVCDLQNFLGFTPEE, the protein stability index was found to be 2.73. With TSGKRYVYRFVCDLQNDLGFTPEE, the protein stability index came to 1.92.

Regarding TSGKRYVYRFVCDLQNELGFTPEE, the protein stability index is 3.13. Take TSGKRYVYRFVCDLQNLLGFTPEN: the protein stability index was found to be 2.33. The same measure, in the same setting: under TSGKRYVYRFVCDLQNLLGFTPEM stands 1.6; under TSGKRYVYRFVCDLQNLLGFTPEF, 2.96.

For TSGKRYVYRFVCDLQNLLGFTPEK, the protein stability index is 1.81. Still for that read-out and setting: under TSGKRYVYRFVCDLQNLLGFTPEL stands 1.96; under TSGKRYVYRFVCDLQNLLGFTPEH, 2.03. On the same count and under the same terms, under TSGKRYVYRFVCDLQNLLGFTPES stands 2.21. Same read-out and setting: under TSGKRYVYRFVCDLQNLLGFTPEG stands 2.14; under TSGKRYVYRFVCDLQNLLGFTPER, 1.96.

As for TSGKRYVYRFVCDLQNLLGFTPEP, the protein stability index was found to be 2.52.

Turning to TSGKRYVYRFVCDLQNLLGFTPEC, the protein stability index was 2.32.

Consider TSGKRYVYRFVCDLQNLLGFTPEI, for which the protein stability index stood at 1.75.

Regarding TSGKRYVYRFVCDLQNLLGFTPEW, the protein stability index came to 2.5. In the case of TSGKRYVYRFVCDLQNLLGFTPEY, the protein stability index came to 2.38. Still for that read-out and setting: under TSGKRYVYRFVCDLQNLLGFTPET stands 2.71; under TSGKRYVYRFVCDLQNLLGFTPEA, 2.69. With TSGKRYVYRFVCDLQNLLGFTPEQ, the protein stability index was found to be 1.89. Regarding TSGKRYVYRFVCDLQNLLGFTPEV, the protein stability index came to 2.51. The same measure, in the same setting: as for TSGKRYVYRFVCDLPNLLGFTPEE, the figure is 2.7; as for TSGKRYVYRFVCDLVNLLGFTPEE, 2.47. Still for that read-out and setting: as for TSGKRYVYRFVCDLINLLGFTPEE, the figure is 2.43. Still for that read-out and setting: as for TSGKRYVYRFVCDLSNLLGFTPEE, the figure is 2.07; as for TSGKRYVYRFVCDLYNLLGFTPEE, 2.23; as for TSGKRYVYRFVCDLLNLLGFTPEE, 2.44. Turning to TSGKRYVYRFVCDLTNLLGFTPEE, the protein stability index came to 1.91.

In the case of TSGKRYVYRFVCDLWNLLGFTPEE, the protein stability index came out at 1.88. For the variant TSGKRYVYRFVCDLNNLLGFTPEE, the protein stability index stood at 2.13. The same measure, in the same setting: as for TSGKRYVYRFVCDLKNLLGFTPEE, the figure is 2.03; as for TSGKRYVYRFVCDLRNLLGFTPEE, 3; as for TSGKRYVYRFVCDLQNLLMFTPEE, 1.82. The same measure, in the same setting: under TSGKRYVYRFVCDLQNLLVFTPEE stands 2.01; under TSGKRYVYRFVCDLQNLLHFTPEE, 1.34. Still for that read-out and setting: under TSGKRYVYRFVCDLQNLLCFTPEE stands 1.32; under TSGKRYVYRFVCDLQNLLDFTPEE, 1.98.

Consider TSGKRYVYRFVCDLQNLLTFTPEE, for which the protein stability index came to 1.79.

On to TSGKRYVYRFVCDLQNLLYFTPEE, for which the protein stability index worked out at 2.52. Still for that read-out and setting: as for TSGKRYVYRFVCDLQNLLLFTPEE, the figure is 1.96; as for TSGKRYVYRFVCDLQNLLIFTPEE, 2.39. On the same count and under the same terms, under TSGKRYVYRFVCDLQNLLAFTPEE stands 3.01; under TSGKRYVYRFVCDLQNLLFFTPEE, 1.82; under TSGKRYVYRFVCDLQNLLWFTPEE, 2.65. On the same count and under the same terms, under TSGKRYVYRFVCDLQNLLEFTPEE stands 1.31; under TSGKRYVYRFVCDLQNLLQFTPEE, 2.65. With TSGKRYVYRFVCDLQNLLPFTPEE, the protein stability index is 2.07. On to TSGKRYVYRFVCDLQNLLKFTPEE, for which the protein stability index amounted to 1.36. Same read-out and setting: as for TSGKRYVYRFVCDLQNLLSFTPEE, the figure is 2.13.

Variants of B2 are the subject of the next series. Described as above. The note with it: c terminus: a fixed tail appended.
For the variant DARTPTLDPDTMHARLRLSADRLT, the protein stability index stood at 3.61. The same measure, in the same setting: as for EARTPTLDPDTMHARLRLSADRLT, the figure is 4.17; as for MARTPTLDPDTMHARLRLSADRLT, 3.71. Same read-out and setting: as for AARTPTLDPDTMHARLRLSADRLT, the figure is 3.59; as for PARTPTLDPDTMHARLRLSADRLT, 3.77; as for KARTPTLDPDTMHARLRLSADRLT, 3.71. On the same count and under the same terms, as for FARTPTLDPDTMHARLRLSADRLT, the figure is 2.21.

Turning to HARTPTLDPDTMHARLRLSADRLT, the protein stability index was determined as 4.06. Same read-out and setting: as for NARTPTLDPDTMHARLRLSADRLT, the figure is 3.52. Still for that read-out and setting: as for IARTPTLDPDTMHARLRLSADRLT, the figure is 2.71; as for LARTPTLDPDTMHARLRLSADRLT, 3.62; as for CARTPTLDPDTMHARLRLSADRLT, 3.2.

With RARTPTLDPDTMHARLRLSADRLT, the protein stability index came to 3.64.

Regarding GARTPTLDPDTMHARLRLSADRLT, the protein stability index was 4. The same measure, in the same setting: as for QARTPTLDPDTMHARLRLSADRLT, the figure is 4.33.
